# According to PMC5602324:
# Where two headings read alike, the source gives them in different places.
# B1: MKLP2 motor domain, construct 25–520 (domain or fragment)
# chain: ESTAADLRSVVRKDLLSDCSVISASLEDKQALLEDTSEKVKVYLRIRPFLTSELDRQEDQGCVCIENTETLVLQAPKDSFALKSNERGVGQATHKFTFSQIFGPEVGQVAFFNLTMKEMVKDVLKGQNWLIYTYGVTNSGKTYTIQGTSKDAGILPQSLALIFNSLQGQLHPTPDLKPLLSNEVIWLDSKQIRQEEMKKLSLLIGGLQEEELSTSVKKRVHTESRIGASNSFDSGVAGLSSTSQFTSSSQLDETSQLWAQPDTVPVSVPADIRFSVWISFFEIYNELLYDLLEPPSHQHKRQTLRLCEDQNGNPYVKDLNWIHVRDVEEAWKLLKVGRKNQSFASTHMNQQSSRSHSIFSIRILHLQGEGDIVPKISELSLCDLAGSERCKHQKSGERLKEAGNINTSLHTLGRCIAALRQNQQNRSKQNLIPFRDSKLTRVFQGFFTGRGRSCMIVNVNPCASTYDETLHAAKFSALASQLVHAPPVHLGIPSLH
# B2: MKLP2 motor domain, construct 1–520 (domain or fragment)
# chain: MSHRILSPPAGLLSDEDVVDSPILESTAADLRSVVRKDLLSDCSVISASLEDKQALLEDTSEKVKVYLRIRPFLTSELDRQEDQGCVCIENTETLVLQAPKDSFALKSNERGVGQATHKFTFSQIFGPEVGQVAFFNLTMKEMVKDVLKGQNWLIYTYGVTNSGKTYTIQGTSKDAGILPQSLALIFNSLQGQLHPTPDLKPLLSNEVIWLDSKQIRQEEMKKLSLLIGGLQEEELSTSVKKRVHTESRIGASNSFDSGVAGLSSTSQFTSSSQLDETSQLWAQPDTVPVSVPADIRFSVWISFFEIYNELLYDLLEPPSHQHKRQTLRLCEDQNGNPYVKDLNWIHVRDVEEAWKLLKVGRKNQSFASTHMNQQSSRSHSIFSIRILHLQGEGDIVPKISELSLCDLAGSERCKHQKSGERLKEAGNINTSLHTLGRCIAALRQNQQNRSKQNLIPFRDSKLTRVFQGFFTGRGRSCMIVNVNPCASTYDETLHAAKFSALASQLVHAPPVHLGIPSLH
# Experiments:
# [1] = target: microtubule (tubulin) (Sus scrofa) (UniProt Q2XVP4); conditions: cited from earlier work
# [2] = target: microtubule (tubulin) (Sus scrofa) (UniProt Q2XVP4); conditions: cited from earlier work; remark: listed apart in the source
# [3] = target: microtubule (tubulin) (Sus scrofa) (UniProt Q2XVP4); conditions: cited from earlier work; remark: listed apart in the source
# [4] = target: paclitaxel-stabilised microtubules (polymerised αβ-tubulin) (bovine) (UniProt Q6B856); test: co-sedimentation; ADP.AlFx state (1 mM nucleotide); 2.5 μM MKLP2-MD with 0–10 μM polymerised tubulin (paclitaxel-stabilised MTs), BRB80 plus 25 mM NaCl, 25°C, 100,000 × g; quadratic fit assuming 1:1 motor:tubulin dimer; apparent
# [5] = target: paclitaxel-stabilised microtubules (polymerised αβ-tubulin) (bovine) (UniProt Q6B856)
# [6] = target: paclitaxel-stabilised microtubules (polymerised αβ-tubulin) (bovine) (UniProt Q6B856); test: co-sedimentation; no nucleotide (NN, apyrase-treated); 2.5 μM MKLP2-MD with 0–10 μM polymerised tubulin (paclitaxel-stabilised MTs), BRB80 plus 25 mM NaCl, 25°C, 100,000 × g; quadratic fit assuming 1:1 motor:tubulin dimer; apparent
# [7] = target: paclitaxel-stabilised microtubules (polymerised αβ-tubulin) (bovine) (UniProt Q6B856); test: co-sedimentation; ADP state (1 mM ADP); 2.5 μM MKLP2-MD with 0–10 μM polymerised tubulin (paclitaxel-stabilised MTs), BRB80 plus 25 mM NaCl, 25°C, 100,000 × g; quadratic fit assuming 1:1 motor:tubulin dimer; apparent
# [8] = target: paclitaxel-stabilised microtubules (polymerised αβ-tubulin) (bovine) (UniProt Q6B856); test: co-sedimentation; AMPPNP state (1 mM nucleotide); 2.5 μM MKLP2-MD with 0–10 μM polymerised tubulin (paclitaxel-stabilised MTs), BRB80 plus 25 mM NaCl, 25°C, 100,000 × g; quadratic fit assuming 1:1 motor:tubulin dimer; apparent
# [9] = target: paclitaxel-stabilised microtubules (polymerised αβ-tubulin) (bovine) (UniProt Q6B856); remark: listed apart in the source
molecule,measurement,setting,value
Kin3 (Kif1a) motor domain (from UniProt P33173),Kd,[1],0.0068 µM
same,Kd,[2],0.0059 µM
same,Kd,[3],0.0042 µM
B1,Kd,[4],0.355 µM
same,"MT-stimulated steady-state ATPase, K0.5,MT (Michaelis Menten fit of velocity against [tubulin])",[5],1.07 µM
same,Kd,[6],0.043 µM
same,Kd,[7],0.363 µM
same,Kd,[8],0.043 µM
B2,"MT-stimulated steady-state ATPase, K0.5,MT (Michaelis Menten fit of velocity against [tubulin])",[9],0.93 µM
